Experimental data: patent publication US20180155451A1 (published 2018)

T1: FcγRIIa H type extracellular domain with C-terminal His tag (human, UniProt P12318 34-217)
T1 construct: extracellular domain; also called FcgRIIa H; FcgRIIaH; not shown: His tag at the C terminus
T1 sequence (looked up): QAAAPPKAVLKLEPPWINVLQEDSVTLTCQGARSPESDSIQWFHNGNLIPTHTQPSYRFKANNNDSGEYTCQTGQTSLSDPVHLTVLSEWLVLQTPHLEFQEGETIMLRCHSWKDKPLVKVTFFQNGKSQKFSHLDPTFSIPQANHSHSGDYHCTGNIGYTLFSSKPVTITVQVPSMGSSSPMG

T2: FcγRIIa R type extracellular domain with C-terminal His tag (human, UniProt P12318 34-217)
T2 construct: extracellular domain; also called FcgRIIa R; FcgRIIaR; not shown: His tag at the C terminus
T2 sequence (looked up): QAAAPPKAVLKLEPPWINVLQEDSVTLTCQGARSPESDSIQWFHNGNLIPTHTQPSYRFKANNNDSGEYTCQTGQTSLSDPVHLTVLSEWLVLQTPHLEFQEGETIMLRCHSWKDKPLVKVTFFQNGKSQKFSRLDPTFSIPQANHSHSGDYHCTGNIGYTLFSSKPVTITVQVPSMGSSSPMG

T3: FcγRIIb extracellular domain with C-terminal His tag (human, UniProt P31994 43-217)
T3 construct: extracellular domain; also called FcgRIIb; 2b; not shown: His tag at the C terminus
T3 sequence (looked up): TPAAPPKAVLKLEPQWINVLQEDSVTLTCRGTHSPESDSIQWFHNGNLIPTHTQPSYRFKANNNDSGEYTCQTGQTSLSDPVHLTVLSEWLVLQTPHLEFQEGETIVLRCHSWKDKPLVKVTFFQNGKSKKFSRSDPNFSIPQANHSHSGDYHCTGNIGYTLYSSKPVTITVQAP


What was measured:
Assay in all cases: SPR (Biacore), antibody captured on chip, soluble FcgR as analyte; experiment 2
[1] = target: T1, FcγRIIa H type extracellular domain …
Description: (§1) Antibodies of interest were analyzed for the interaction to FcgR according to the method described in Reference Example 8.
(§2) Analysis of interaction between obj ective antibody and the FcγR was carried out using Biacore T100 (GE Healthcare), Biacore T200, Biacore A100, and Biacore 4000. HBS-EP+ (GE Healthcare) was used as the running buffer, and the measurement temperature was set to 25° C. Chips produced by immobilizing the antigen peptide by the amine coupling method to a Series S sensor Chip CM5 (GE Healthcare), chips produced by allowing preliminarily biotinylated antigen peptides to interact with and immobilize onto a Series S Sensor Chip SA (certified) (GE Healthcare), chips produced by immobilizing Protein L (ACTIGEN, BioVision) to Series S Sencor Chip CM5 (GE Healthcare), or chips produced by immobilizing Protein A/G (Thermo Scientific) to Series S Sencor Chip CM5 (GE Healthcare) were used. Antibodies of interest were captured onto these chips, and allowed to interact to each FcγR diluted with running buffer. To regenerate and repeatedly use the chip, the antibodies captured onto the chip were washed off by reacting 10 mM glycine-HCl, pH 1.5.

[2] = target: T2, FcγRIIa R type extracellular domain …
Description: as §1, §2

[3] = target: T4, FcγRIIIa F type extracellular domain with C-terminal His tag (human, UniProt P08637 17-208)
T4 construct: extracellular domain; also called FcgRIIIa F; FcgRIIIaF; not shown: His tag at the C terminus
Description: as §1, §2

[4] = target: T3, FcγRIIb extracellular domain with …
Description: as §1, §2

[5] = target: T5, FcγRIIIa V type extracellular domain with C-terminal His tag (human, UniProt P08637 17-208)
T5 construct: extracellular domain; also called FcgRIIIa V; FcgRIIIaV; not shown: His tag at the C terminus
Description: as §1, §2

[6] = target: T6, FcγRIa extracellular domain with C-terminal His tag (human, UniProt P12314 16-292)
T6 construct: extracellular domain; also called FcgRI; FcgRIa; not shown: His tag at the C terminus
Description: as §1, §2

T6 sequence (P12314 16-292): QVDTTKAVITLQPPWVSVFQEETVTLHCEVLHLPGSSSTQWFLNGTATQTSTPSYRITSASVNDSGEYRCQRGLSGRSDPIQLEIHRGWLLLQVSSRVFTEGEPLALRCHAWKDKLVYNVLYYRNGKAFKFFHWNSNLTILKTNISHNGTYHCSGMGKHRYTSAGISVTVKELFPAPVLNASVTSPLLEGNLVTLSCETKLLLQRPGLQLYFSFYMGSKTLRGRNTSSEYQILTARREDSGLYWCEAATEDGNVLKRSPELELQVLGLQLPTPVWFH
T4 sequence (P08637 17-208): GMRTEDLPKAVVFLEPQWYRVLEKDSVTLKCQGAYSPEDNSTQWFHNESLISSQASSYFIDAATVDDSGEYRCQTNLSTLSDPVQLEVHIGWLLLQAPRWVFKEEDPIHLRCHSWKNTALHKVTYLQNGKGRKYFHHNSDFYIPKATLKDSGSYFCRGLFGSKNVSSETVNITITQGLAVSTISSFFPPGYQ
T5 sequence (P08637 17-208 F176V): as the sequence (P08637 17-208) above, with F160V counted along it

Row | Kd [1] [nM] | Kd [2] [nM] | Kd [3] [nM] | Kd [4] [nM] | Kd [5] [nM] | Kd [6] [nM] | Binder
1 | 70 | 280 | 3.7 | 2200 | 0.78 | 0.051 | H240-FA009/H240-FB021/L73-k0 (antibody, human IgG1, kappa, Heterodimerized anti-EREG IgG1 antibody; A chain altered from H240-AK072, B chain altered from H240-BH076) heavy 1: QDQLVQSGAEVKKPGASVKVSCKASGFNIKDTYIQWVRQAPGQGLEWMGRIDPLRKQTKYREKFEGRVTITADTSTNTAYMELSSLRSEDTAVYYCVRSGREFDYWGQGTLVTVSSASTKGPSVFPLAPSSKSTSGGTAALGCLVKDYFPEPVTVSWNSGALTSGVHTFPAVLQSSGLYSLSSVVTVPSSSLGTKTYICNVNHKPSNTKVDKKVEPKSCDKTHTCPPCPAPEYYWGPSVFLFPPKPKDTLMISRTPEVTCVVVDVSDEEPEVKFNWYVDGVEVHNAKTKPREEQYNATYRVVSVLTVLHQDWLNGKEYKCKVSNKALPAPIEKTISKAKGQPREPQVYTLPPSRKEMTKNQVSLTCLVKGFYPSDIAVEWESNGQPENNYKTTPPVLDSDGSFFLYSKLTVDKSRWQQGNVFSCSVMHEALHNRYTQKSLSLSP heavy 2: QDQLVQSGAEVKKPGASVKVSCKASGFNIKDTYIQWVRQAPGQGLEWMGRIDPLRKQTKYREKFEGRVTITADTSTNTAYMELSSLRSEDTAVYYCVRSGREFDYWGQGTLVTVSSASTKGPSVFPLAPSSKSTSGGTAALGCLVKDYFPEPVTVSWNSGALTSGVHTFPAVLQSSGLYSLSSVVTVPSSSLGTQTYICNVNHKPSNTKVDKKVEPKSCDKTHTCPPCPAPELLGGPSVFLFPPKPKDTLMISRTPEVTCVVVDVSHEEPEVQFNWYVDGVEVHNAETKPREEQYNSTYRVVSVLTVLHQDWLNGKEYKCKVSNDALPMPIEETISKAKGQPREPQVYTLPPSREEMTKNQVSLTCLVKGFYPSDIAVEWESNGQPENNYKTTPPVLDSDGSFFLYSKLTVDKSRWQQGNVFSCSVMHEALHNHYTQESLSLSP light: DIQMTQSPSSLSASVGDRVTITCRASQDIHKYIAWYQQKPGQAPRLLIQYTSTLQPGVPSRFSGSGSGTDYTFTISSLQPEDIATYYCLQYEQLRTFGGGTKVEIKRTVAAPSVFIFPPSDEQLKSGTASVVCLLNNFYPREAKVQWKVDNALQSGNSQESVTEQDSKDSTYSLSSTLTLSKADYEKHKVYACEVTHQGLSSPVTKSFNRGEC
2 | 74 | 270 | 4.4 | 1700 | 1.1 | 0.05 | H240-FA009/H240-FB047/L73-k0 (antibody, human IgG1, kappa, Heterodimerized anti-EREG IgG1 antibody; A chain altered from H240-AK072, B chain altered from H240-BH076) heavy 1: QDQLVQSGAEVKKPGASVKVSCKASGFNIKDTYIQWVRQAPGQGLEWMGRIDPLRKQTKYREKFEGRVTITADTSTNTAYMELSSLRSEDTAVYYCVRSGREFDYWGQGTLVTVSSASTKGPSVFPLAPSSKSTSGGTAALGCLVKDYFPEPVTVSWNSGALTSGVHTFPAVLQSSGLYSLSSVVTVPSSSLGTKTYICNVNHKPSNTKVDKKVEPKSCDKTHTCPPCPAPEYYWGPSVFLFPPKPKDTLMISRTPEVTCVVVDVSDEEPEVKFNWYVDGVEVHNAKTKPREEQYNATYRVVSVLTVLHQDWLNGKEYKCKVSNKALPAPIEKTISKAKGQPREPQVYTLPPSRKEMTKNQVSLTCLVKGFYPSDIAVEWESNGQPENNYKTTPPVLDSDGSFFLYSKLTVDKSRWQQGNVFSCSVMHEALHNRYTQKSLSLSP heavy 2: QDQLVQSGAEVKKPGASVKVSCKASGFNIKDTYIQWVRQAPGQGLEWMGRIDPLRKQTKYREKFEGRVTITADTSTNTAYMELSSLRSEDTAVYYCVRSGREFDYWGQGTLVTVSSASTKGPSVFPLAPSSKSTSGGTAALGCLVKDYFPEPVTVSWNSGALTSGVHTFPAVLQSSGLYSLSSVVTVPSSSLGTQTYICNVNHKPSNTKVDKKVEPKSCDKTHTCPPCPAPELLGGPSVFLFPPKPKDTLMISRTPEVTCVVVDVSHEEPEVQFNWYVDGVEVHNAKTKPREEQYNSTYRVVSVLTVLHQDWLNGKEYKCKVSNDALPMPIEETISKAKGQPREPQVYTLPPSREEMTKNQVSLTCLVKGFYPSDIAVEWESEGQPENNYKTTPPVLDSDGSFFLYSKLTVDKSRWQQGNVFSCSVMHEALHNHYTQESLSLSP light: DIQMTQSPSSLSASVGDRVTITCRASQDIHKYIAWYQQKPGQAPRLLIQYTSTLQPGVPSRFSGSGSGTDYTFTISSLQPEDIATYYCLQYEQLRTFGGGTKVEIKRTVAAPSVFIFPPSDEQLKSGTASVVCLLNNFYPREAKVQWKVDNALQSGNSQESVTEQDSKDSTYSLSSTLTLSKADYEKHKVYACEVTHQGLSSPVTKSFNRGEC
3 | 80 | 310 | 3.4 | 1600 | 1 | 0.12 | H240-FA009/H240-FB033/L73-k0 (antibody, human IgG1, kappa, Heterodimerized anti-EREG IgG1 antibody; A chain altered from H240-AK072, B chain altered from H240-BH076) heavy 1: QDQLVQSGAEVKKPGASVKVSCKASGFNIKDTYIQWVRQAPGQGLEWMGRIDPLRKQTKYREKFEGRVTITADTSTNTAYMELSSLRSEDTAVYYCVRSGREFDYWGQGTLVTVSSASTKGPSVFPLAPSSKSTSGGTAALGCLVKDYFPEPVTVSWNSGALTSGVHTFPAVLQSSGLYSLSSVVTVPSSSLGTKTYICNVNHKPSNTKVDKKVEPKSCDKTHTCPPCPAPEYYWGPSVFLFPPKPKDTLMISRTPEVTCVVVDVSDEEPEVKFNWYVDGVEVHNAKTKPREEQYNATYRVVSVLTVLHQDWLNGKEYKCKVSNKALPAPIEKTISKAKGQPREPQVYTLPPSRKEMTKNQVSLTCLVKGFYPSDIAVEWESNGQPENNYKTTPPVLDSDGSFFLYSKLTVDKSRWQQGNVFSCSVMHEALHNRYTQKSLSLSP heavy 2: QDQLVQSGAEVKKPGASVKVSCKASGFNIKDTYIQWVRQAPGQGLEWMGRIDPLRKQTKYREKFEGRVTITADTSTNTAYMELSSLRSEDTAVYYCVRSGREFDYWGQGTLVTVSSASTKGPSVFPLAPSSKSTSGETAALGCLVKDYFPEPVTVSWNSGALTSGVHTFPAVLQSSGLYSLSSVVTVPSSSLGTQTYICNVNHKPSNTKVDKKVEPKSCDKTHTCPPCPAPELLGGPSVFLFPPKPKDTLMISRTPEVTCVVVDVSHEEPEVQFNWYVDGVEVHNAKTKPREEQYNSTYRVVSVLTVLHQDWLNGKEYKCKVSNDALPMPIEETISKAKGQPREPQVYTLPPSREEMTKNQVSLTCLVKGFYPSDIAVEWESNGQPENNYKTTPPVLDSDGSFFLYSKLTVDKSRWQQGNVFSCSVMHEALHNHYTQESLSLSP light: DIQMTQSPSSLSASVGDRVTITCRASQDIHKYIAWYQQKPGQAPRLLIQYTSTLQPGVPSRFSGSGSGTDYTFTISSLQPEDIATYYCLQYEQLRTFGGGTKVEIKRTVAAPSVFIFPPSDEQLKSGTASVVCLLNNFYPREAKVQWKVDNALQSGNSQESVTEQDSKDSTYSLSSTLTLSKADYEKHKVYACEVTHQGLSSPVTKSFNRGEC
